Measured values as given in patent US20260217861.

Tested on: mouse GPV with point mutation R476A in the thrombin cleavage site (Gp5^dThr platelets)
Sequence (chain, as listed by the source R476A): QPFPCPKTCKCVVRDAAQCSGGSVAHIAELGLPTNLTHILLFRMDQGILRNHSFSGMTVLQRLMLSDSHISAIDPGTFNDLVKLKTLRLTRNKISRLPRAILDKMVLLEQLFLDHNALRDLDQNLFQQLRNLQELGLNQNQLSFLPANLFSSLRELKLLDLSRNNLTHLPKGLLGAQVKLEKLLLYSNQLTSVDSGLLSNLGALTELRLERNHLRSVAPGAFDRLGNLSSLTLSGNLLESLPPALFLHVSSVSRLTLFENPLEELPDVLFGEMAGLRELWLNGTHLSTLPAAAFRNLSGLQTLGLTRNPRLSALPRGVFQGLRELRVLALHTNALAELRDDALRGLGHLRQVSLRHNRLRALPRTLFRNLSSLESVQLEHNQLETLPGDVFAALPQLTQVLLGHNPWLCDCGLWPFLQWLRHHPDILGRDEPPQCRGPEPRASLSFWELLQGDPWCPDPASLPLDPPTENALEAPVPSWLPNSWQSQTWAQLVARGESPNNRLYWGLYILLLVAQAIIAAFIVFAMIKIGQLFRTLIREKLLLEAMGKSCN

human thrombin (Roche, Sigma-Aldrich #10602400001)
cleavage of GPV by thrombin (sGPV ELISA, flow cytometry): GPV was completely resistant to cleavage by thrombin
